From publication PMC10550236

Tests used:
[1] = biological target: Fem proteins (Apis mellifera); assay: SDS-PAGE under oligomer-forming (very low denaturation) conditions with Western blot; complexation of Fem proteins (fig. S6); the text does not name the method, taken from the experiments on Csd that precede it
[2] = biological target: CC^DD, CC fragment with glutamic acid replaced with aspartic acid at two core hydrophilic positions (Apis mellifera); assay: SDS-PAGE under oligomer-forming (very low denaturation) conditions with Western blot; myc-tagged proteins translated in reticulocyte lysate; native loading buffer with no SDS; 0.01% SDS in the gel, 0.15% SDS as running buffer; anti-myc detection; complexes and monomers quantified by chemiluminescence

| stoichiometry N [1] | reduction of homotrimer formation compared to the WT [2] | Substance |
| --- | --- | --- |
| 3 | – | Fem proteins (natural protein) |
| – | 50 to 90% | CC^DD, CC fragment with glutamic acid replaced with aspartic acid at two core hydrophilic positions |
